Laboratory results: the Human Domainome abundance scans (Beltran et al. 2025)

B1: Formin-binding protein 4, residues 200 to 261; numbered along this chain, Q8N3X1 (parent)
chain: SGWQYDTQCSLAGVGIEMGDWQEVWDENTGCYYYWNTQTNEVTWELPQYLATQVQGLQHYQP

Variants of: B1
Assay: abundance fitness (aPCA) (normalised: wild type 0, dead -1); higher = more abundant; growth selection in yeast, the domain comes from the species named
Conditions: Homo sapiens

Abundance fitness of substitutions, site by site:
S10: P -0.216, Y -0.623, N -0.533, Q -0.498, R -0.328, V -0.701, K -0.457, M -0.521, T -0.112, I -0.476, W -1.03, L -0.651
L11: E -0.483, Y -0.57, V -0.192, D -0.429, G -0.678, H -0.559, P -0.636, N -0.79, I -0.061, W -0.381, F -0.714, A -0.731, C -0.429, K -0.469, M -0.625
G19: W -0.992, Y -0.96, C -0.918, E -0.4, A -0.091, D -0.362, M -0.525, I -0.769, R -0.722, F -0.794, H -0.642, S -0.454, T -0.782, P -0.897, N -0.676
T29: I -0.382, A 0.162, N -0.086, K 0.311, M -0.1, L -0.036, H -0.017, C -0.066, F -0.074, P -0.172, G -0.147
W25: D -0.252, L -0.119, F -0.142, G -0.557, M -0.129, R -0.287, P -0.376, Y -0.209, V -0.358, C -0.263, A -0.207, E -0.414, S -0.294, T -0.381, N -0.853, K -0.014, I -0.251, H -0.256
E17: V -0.237, W -0.403, I -0.373, Q -0.038, L -0.577, S -0.151, Y -0.838, R -0.103, C -0.338, K 0.063, A -0.183, N -0.34, G -0.346, M -0.414, H -0.105, F -0.263, P -0.58, D 0.138
V14: E -0.03, G 0.091, H -0.09, C -0.043, Y 0.365, S -0.163, R -0.01, Q 0.071, W 0.055, A -0.06, L -0.071, K 0.116, T -0.084, M -0.028, D -0.273, N -0.067, P -0.698
G15: S -0.11, A 0.273, N -0.21, R -0.071, F -0.583, T -0.099, V -0.481, Q 0.1, W -0.727, L -0.638, K -0.073, P -0.03, Y -0.661, M -0.321, H -0.536, E -0.178, C -0.182, D 0.132, I -0.67
I16: S -0.574, H -0.8, G -0.763, Q -0.621, C -0.373, R -0.713, E -0.507, D -0.742, Y -0.334, A -0.332, K -0.542, T -0.506, L -0.137, P -0.735, F -0.195, W -0.671, M 0.08, N -0.676, V 0.027
D20: I -0.579, S -0.295, A -0.3, G -0.254, Y -0.217, F 0.15, C -0.162, N -0.264, T -0.339, E -0.162, V -0.237, P -0.252, Q -0.287, R -0.022, H -0.043, L -0.383, W -0.143, M -0.29, K -0.287
G13: Y -0.578, C -0.103, L -0.187, N -0.468, H -0.158, W -0.666, Q -0.197, I -0.471, K -0.107, S -0.171, F -0.129, A -0.237, E -0.161, R -0.194, P -0.082, D -0.087, M -0.158, T -0.009, V -0.424
N28: L -0.233, E -0.07, P -0.133, H -0.229, K 0.108, Y -0.245, S -0.151, G 0.073, V -0.507, I 0.281, W -0.291, M -0.32, D -0.002, T -0.153, F -0.329, C -0.022
E23: Q -0.431, S -0.682, P -0.697, V -1.07, C -0.862, R -0.59, Y -0.58, A -0.817, H -0.443, L -0.637, F -0.511, T -0.582, M -0.964, I -0.759, W -1.06
W21: I -0.859, C -0.804, N -1.1, H -0.297, A -0.948, K -1.05, R -0.811, F -0.313, Y -0.066, L -0.847, D -0.716, V -0.82, E -1.03, G -0.791, P -0.812, T -0.792, M -0.498
E27: S -0.187, V -0.373, I -0.174, Q -0.168, D 0.101, A 0.043, H 0.516, P -0.349, T -0.199, R -0.112, W -0.601, F -0.319, G -0.066, N -0.127, M -0.381, C -0.213, L -0.429, Y -0.288, K 0.076
M18: K -0.618, H -0.432, T -0.132, Q -0.69, N -0.869, P -0.264, F -0.278, Y -0.53, L -0.313, G -0.545, R -0.643, S -0.586, E -0.534, A -0.685, C -0.549, I -0.247, W 0.025
V24: Q 0.097, H -0.163, W -0.437, D -0.215, R -0.145, A -0.409, E -0.217, M -0.361, T -0.036, N -0.257, G -0.269, P -1.05, L -0.074, I -0.399, Y -0.145, F -0.168
A12: T -0.389, P -0.448, E -0.267, L -0.272, C -0.185, Y -0.025, D -0.226, Q -0.131, I -0.363, K -0.146, H -0.217, S -0.068, G 0.089, M -0.587, F -0.465, N -0.331, V -0.041
Q22: H -0.641, W -0.61, G -0.234, P -0.905, F -0.423, V 0.063, L -0.315, C -0.459, T -0.137, E 0.042, S -0.136, Y -0.586, A -0.121, M -0.217, R 0.006, D -0.371, N -0.023
D26: Y -0.322, Q -0.181, M -0.09, F -0.296, G -0.373, W -0.256, I -0.593, P -1.14, S -0.007, R -0.515, E -0.148, C -0.228, L -0.5, V -0.384, T -0.178, A -0.176, K -0.345, N -0.084
